Results as given in patent US20200024322A1 (Eli Lilly, published 2020).
Numbered stars: 1 amine (or outer) side, 2 acyl side, 3 side chain; on linkers, the order of the positions; unused ones are H or OH. Square brackets hold non-standard residues; d marks the D form. Side chains are listed from the residue outwards. Ends that are not written are not given here. * marks the point of attachment. C20 diacid = O=C(O)CCCCCCCCCCCCCCCCCCC(=O)*; γGlu = O=C(O)[C@H](CCC(=O)[*:2])N[*:1]; AEEA = NCCOCCOCC(=O)O; Aib = CC(C)(N)C(=O)O

B1: Example 204 (peptide)
peptide: YXEGTXTSDXSIXLDEKAQXEFIXYLIEGGPSSGAPPPS
modifications: Aib2; αMeF(2F)6; 4Pal10; αMeL13; K17((2-[2-(2-Amino-ethoxy)-ethoxy]-acetyl)2-(γ-Glu)-CO-(CH2)16-CO2H); Aib20; D-Glu24; C-terminal NH2
B2: Example 23 (peptide)
peptide: Y[Aib]EGTFTSDK([AEEA-AEEA-γGlu-C20 diacid])SILLDKIAQ[Aib]AFIEYLIEGGPSSGAPPPS-NH2
modifications: N-terminus assumed
SMILES: CC[C@H](C)[C@H](NC(=O)[C@H](CCCCN)NC(=O)[C@H](CC(=O)O)NC(=O)[C@H](CC(C)C)NC(=O)[C@H](CC(C)C)NC(=O)[C@@H](NC(=O)[C@H](CO)NC(=O)[C@H](CCCCNC(=O)COCCOCCNC(=O)COCCOCCNC(=O)CC[C@H](NC(=O)CCCCCCCCCCCCCCCCCCC(=O)O)C(=O)O)NC(=O)[C@H](CC(=O)O)NC(=O)[C@H](CO)NC(=O)[C@@H](NC(=O)[C@H](Cc1ccccc1)NC(=O)[C@@H](NC(=O)CNC(=O)[C@H](CCC(=O)O)NC(=O)C(C)(C)NC(=O)[C@@H](N)Cc1ccc(O)cc1)[C@@H](C)O)[C@@H](C)O)[C@@H](C)CC)C(=O)N[C@@H](C)C(=O)N[C@@H](CCC(N)=O)C(=O)NC(C)(C)C(=O)N[C@@H](C)C(=O)N[C@@H](Cc1ccccc1)C(=O)N[C@H](C(=O)N[C@@H](CCC(=O)O)C(=O)N[C@@H](Cc1ccc(O)cc1)C(=O)N[C@@H](CC(C)C)C(=O)N[C@H](C(=O)N[C@@H](CCC(=O)O)C(=O)NCC(=O)NCC(=O)N1CCC[C@H]1C(=O)N[C@@H](CO)C(=O)N[C@@H](CO)C(=O)NCC(=O)N[C@@H](C)C(=O)N1CCC[C@H]1C(=O)N1CCC[C@H]1C(=O)N1CCC[C@H]1C(=O)N[C@@H](CO)C(N)=O)[C@@H](C)CC)[C@@H](C)CC
B3: Example 26 (peptide)
peptide: Y[Aib]EGTFTSDYSIK([AEEA-AEEA-γGlu-C20 diacid])LDKIAQ[Aib]AFIEYLIEGGPSSGAPPPS-NH2
modifications: N-terminus assumed
SMILES: CC[C@H](C)[C@H](NC(=O)[C@H](CCCCN)NC(=O)[C@H](CC(=O)O)NC(=O)[C@H](CC(C)C)NC(=O)[C@H](CCCCNC(=O)COCCOCCNC(=O)COCCOCCNC(=O)CC[C@H](NC(=O)CCCCCCCCCCCCCCCCCCC(=O)O)C(=O)O)NC(=O)[C@@H](NC(=O)[C@H](CO)NC(=O)[C@H](Cc1ccc(O)cc1)NC(=O)[C@H](CC(=O)O)NC(=O)[C@H](CO)NC(=O)[C@@H](NC(=O)[C@H](Cc1ccccc1)NC(=O)[C@@H](NC(=O)CNC(=O)[C@H](CCC(=O)O)NC(=O)C(C)(C)NC(=O)[C@@H](N)Cc1ccc(O)cc1)[C@@H](C)O)[C@@H](C)O)[C@@H](C)CC)C(=O)N[C@@H](C)C(=O)N[C@@H](CCC(N)=O)C(=O)NC(C)(C)C(=O)N[C@@H](C)C(=O)N[C@@H](Cc1ccccc1)C(=O)N[C@H](C(=O)N[C@@H](CCC(=O)O)C(=O)N[C@@H](Cc1ccc(O)cc1)C(=O)N[C@@H](CC(C)C)C(=O)N[C@H](C(=O)N[C@@H](CCC(=O)O)C(=O)NCC(=O)NCC(=O)N1CCC[C@H]1C(=O)N[C@@H](CO)C(=O)N[C@@H](CO)C(=O)NCC(=O)N[C@@H](C)C(=O)N1CCC[C@H]1C(=O)N1CCC[C@H]1C(=O)N1CCC[C@H]1C(=O)N[C@@H](CO)C(N)=O)[C@@H](C)CC)[C@@H](C)CC
B4: Example 35 (peptide)
peptide: Y[Aib]EGTFTSDYSILLDKIAQ[Aib]AFIEYK([AEEA-AEEA-γGlu-C20 diacid])IEGGPSSGAPPPS-NH2
modifications: N-terminus assumed
SMILES: CC[C@H](C)[C@H](NC(=O)[C@H](CCCCN)NC(=O)[C@H](CC(=O)O)NC(=O)[C@H](CC(C)C)NC(=O)[C@H](CC(C)C)NC(=O)[C@@H](NC(=O)[C@H](CO)NC(=O)[C@H](Cc1ccc(O)cc1)NC(=O)[C@H](CC(=O)O)NC(=O)[C@H](CO)NC(=O)[C@@H](NC(=O)[C@H](Cc1ccccc1)NC(=O)[C@@H](NC(=O)CNC(=O)[C@H](CCC(=O)O)NC(=O)C(C)(C)NC(=O)[C@@H](N)Cc1ccc(O)cc1)[C@@H](C)O)[C@@H](C)O)[C@@H](C)CC)C(=O)N[C@@H](C)C(=O)N[C@@H](CCC(N)=O)C(=O)NC(C)(C)C(=O)N[C@@H](C)C(=O)N[C@@H](Cc1ccccc1)C(=O)N[C@H](C(=O)N[C@@H](CCC(=O)O)C(=O)N[C@@H](Cc1ccc(O)cc1)C(=O)N[C@@H](CCCCNC(=O)COCCOCCNC(=O)COCCOCCNC(=O)CC[C@H](NC(=O)CCCCCCCCCCCCCCCCCCC(=O)O)C(=O)O)C(=O)N[C@H](C(=O)N[C@@H](CCC(=O)O)C(=O)NCC(=O)NCC(=O)N1CCC[C@H]1C(=O)N[C@@H](CO)C(=O)N[C@@H](CO)C(=O)NCC(=O)N[C@@H](C)C(=O)N1CCC[C@H]1C(=O)N1CCC[C@H]1C(=O)N1CCC[C@H]1C(=O)N[C@@H](CO)C(N)=O)[C@@H](C)CC)[C@@H](C)CC
B5: Example 28 (peptide)
peptide: Y[Aib]EGTFTSDYSILLK([AEEA-AEEA-γGlu-C20 diacid])KIAQ[Aib]AFIEYLIEGGPSSGAPPPS-NH2
modifications: N-terminus assumed
SMILES: CC[C@H](C)[C@H](NC(=O)[C@H](CCCCN)NC(=O)[C@H](CCCCNC(=O)COCCOCCNC(=O)COCCOCCNC(=O)CC[C@H](NC(=O)CCCCCCCCCCCCCCCCCCC(=O)O)C(=O)O)NC(=O)[C@H](CC(C)C)NC(=O)[C@H](CC(C)C)NC(=O)[C@@H](NC(=O)[C@H](CO)NC(=O)[C@H](Cc1ccc(O)cc1)NC(=O)[C@H](CC(=O)O)NC(=O)[C@H](CO)NC(=O)[C@@H](NC(=O)[C@H](Cc1ccccc1)NC(=O)[C@@H](NC(=O)CNC(=O)[C@H](CCC(=O)O)NC(=O)C(C)(C)NC(=O)[C@@H](N)Cc1ccc(O)cc1)[C@@H](C)O)[C@@H](C)O)[C@@H](C)CC)C(=O)N[C@@H](C)C(=O)N[C@@H](CCC(N)=O)C(=O)NC(C)(C)C(=O)N[C@@H](C)C(=O)N[C@@H](Cc1ccccc1)C(=O)N[C@H](C(=O)N[C@@H](CCC(=O)O)C(=O)N[C@@H](Cc1ccc(O)cc1)C(=O)N[C@@H](CC(C)C)C(=O)N[C@H](C(=O)N[C@@H](CCC(=O)O)C(=O)NCC(=O)NCC(=O)N1CCC[C@H]1C(=O)N[C@@H](CO)C(=O)N[C@@H](CO)C(=O)NCC(=O)N[C@@H](C)C(=O)N1CCC[C@H]1C(=O)N1CCC[C@H]1C(=O)N1CCC[C@H]1C(=O)N[C@@H](CO)C(N)=O)[C@@H](C)CC)[C@@H](C)CC

biological target: T1, human GIP receptor (human, UniProt P48546 22-466); assay: SPA, [125I]-GIP displacement, hGIPR membranes
T1 construct: whole, on cells; Used as crude membranes of stably transfected CHO cells; also called hGIPR
T1 sequence (looked up): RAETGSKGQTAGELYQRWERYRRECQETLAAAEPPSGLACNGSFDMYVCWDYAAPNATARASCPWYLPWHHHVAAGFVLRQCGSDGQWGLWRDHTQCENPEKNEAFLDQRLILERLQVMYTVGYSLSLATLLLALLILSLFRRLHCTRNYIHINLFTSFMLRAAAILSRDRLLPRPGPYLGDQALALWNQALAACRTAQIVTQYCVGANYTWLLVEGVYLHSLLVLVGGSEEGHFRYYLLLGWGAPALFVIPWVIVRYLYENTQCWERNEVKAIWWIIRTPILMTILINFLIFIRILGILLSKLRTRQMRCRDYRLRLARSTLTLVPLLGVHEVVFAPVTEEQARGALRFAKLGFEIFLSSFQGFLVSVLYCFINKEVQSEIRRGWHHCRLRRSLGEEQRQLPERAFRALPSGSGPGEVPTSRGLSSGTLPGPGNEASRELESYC

Binder	Ki [nM]
B1	0.0704
B2	0.258
Y[Aib]EGTFTSDYSILLDKIAQ[Aib]AFK([AEEA-AEEA-γGlu-C20 diacid])EYLIEGGPSSGAPPPS-NH2 [Example 33]	6.4
B3	0.176
B4	0.0358
B5	0.24

biological target: T2, human GLP-1 receptor (human, UniProt P43220 24-463); assay: SPA, [125I]-GLP-1 displacement, hGLP-1R membranes
T2 construct: whole, on cells; Used as crude membranes of stably transfected HEK293 cells; also called hGLP1R; hGLP-1R

Binder	Ki [nM]
B2	6.32
Y[Aib]EGTFTSDYSILLDKIAQ[Aib]AFK([AEEA-AEEA-γGlu-C20 diacid])EYLIEGGPSSGAPPPS-NH2 [Example 33]	361
B3	4.22
B4	54.6
B5	21.1
